Source: patent publication US9096646B2, “CXCR4 receptor compounds” (priority 2008, dated 2015)
Read-outs that look alike come from different tables or passages of the source. Blank lines part the entries; values can stand above or below the compound they belong to. Square brackets hold non-standard residues; d marks the D form. Ends that are not written are not given here. Peptide text beside a SMILES is read from it. * marks the point of attachment. ξ: configuration not given here. Biotin = O=C1N[C@H]2[C@H](CS[C@H]2CCCCC(=O)*)N1; ξGly(nC16H33) = CCCCCCCCCCCCCCCCC(N)C(=O)O; Palmitoyl = CCCCCCCCCCCCCCCC(=O)*; NHhexadecyl = CCCCCCCCCCCCCCCCN*

Target: CXCR4 (Homo sapiens, UniProt P61073)
Assay: Chemotaxis assay, effect on SDF1-a (CXCL12) induced migration of CCRF-CEM cells
Format: cell-based
Design: a human T-cell ALL line that endogenously expresses CXCR4; endogenous in cells; host or cells: CCRF-CEM (human T-cell ALL line)
Settings: for AUC (% of vehicle) / Max (% of vehicle) / Peak Test Comp. / Peak Test Compound / activity at 1 µM / Peak Ratio: CEM cells; for activity at 1 µM: CCRF-CEM
[1] = Table 20, i3 loop, conc 0.01 uM
[2] = Table 20, i3 loop, conc 0.03 uM
[3] = Table 18, i1 loop, drug conc 1.0 uM, read-out: AUC (% of)
[4] = Table 18, i1 loop, drug conc 1.0 uM, read-out: Max (% of)
[5] = Table 20, i3 loop, conc 1.0 uM, read-out: AUC (% of vehicle)
[6] = Table 20, i3 loop, conc 1.0 uM, read-out: Max (% of vehicle)
[7] = Table 20, i3 loop, conc 1.0 uM, peak test compound/peak control

Sequence of CXCR4 (P61073 whole entry): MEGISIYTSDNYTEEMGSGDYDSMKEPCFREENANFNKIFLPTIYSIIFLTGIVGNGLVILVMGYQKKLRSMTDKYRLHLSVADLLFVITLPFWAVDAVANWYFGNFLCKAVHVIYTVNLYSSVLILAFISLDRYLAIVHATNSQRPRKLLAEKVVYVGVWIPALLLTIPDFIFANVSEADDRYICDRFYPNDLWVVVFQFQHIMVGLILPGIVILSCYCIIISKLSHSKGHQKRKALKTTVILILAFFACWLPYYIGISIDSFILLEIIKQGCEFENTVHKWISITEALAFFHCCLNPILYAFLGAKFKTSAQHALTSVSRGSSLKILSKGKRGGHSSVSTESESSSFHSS
Text: Chemotaxis assays were utilized to determine the effect of compound on the directed migration of cells in response to chemokine. Cells that express a receptor of interest were placed in the upper chamber of a Transwell chemotaxis plate (Corning) and allowed to migrate through a polycarbonate membrane to a lower chamber containing the appropriate receptor-specific ligand. To test for antagonist or potentiating activity, cells were mixed with the desired concentration of compound prior to addition to the upper chamber. Conversely, agonist activity was determined by adding compound in the bottom chamber only without endogenous chemokine. The effect of compound is quantified by several parameters, including the extent of maximum response, the shift of agonist dose-response curves, and the area under the curve.
To measure the CXCR4-dependent migration of cells, the appropriate concentration of CXCL12 (SDF1a) or test compound was diluted in phenol red-free RMPI-1640/20 mM HEPES/0.5% BSA buffer and placed in the bottom chamber of a transwell apparatus. CCRF-CEM cells, a human T-cell ALL line that endogenously expresses CXCR4, were washed twice in buffer and resuspended at 133,000 cells/ml. A 75 μl sample of this suspension is mixed with the test compound of interest and placed in the upper chamber of a 5-micron transwell apparatus.
To initiate cell migration, the assembled transwell plate was placed in a 37° C., 0.5% CO2 incubator for a specified time interval, typically between 30 and 120 minutes. After incubation, the unit was disassembled and the lower chamber placed at −80° C. overnight to facilitate lysis of cells. To quantify migrated cells, plates were thawed at 37° C. in a humidified chamber, and then a sample volume was removed from each well and mixed with an equal volume of CyQuant (Invitrogen) working solution in opaque plates. The fluorescence intensity of each well represents the DNA content and is directly proportional to cell number. […] The plate background control, which included no cells in the upper chamber, was subtracted from all values.

AUC (% of vehicle) (Table 21, i4 loop, conc 1.0 uM): 89.47 % of Vehicle | Max (% of vehicle) (Table 21, i4 loop, conc 1.0 uM): 83.94 % of Vehicle | Peak Test Comp. (Table 21, i4 loop, conc 1.0 uM): 25 nM
Compound: 108: CXCR4 i4 domain compound (GAKFKTSAQHALTSVSRGSSLKILSKGKRG) [Compound 108]

AUC (% of vehicle) (Table 20, i3 loop, conc 1.0 uM): 36.4 % of vehicle | Max (% of vehicle) (Table 20, i3 loop, conc 1.0 uM): 56.39 % of vehicle
Compound: 104: CXCR4 i3 loop compound (IIISKLSHSKGHQKRKALKT) [Compound 104]

AUC (% of vehicle) (Table 20, i3 loop, conc 1.0 uM): 34.22 % of vehicle | Max (% of vehicle) (Table 20, i3 loop, conc 1.0 uM): 63.12 % of vehicle
Compound: 96: CXCR4 i3 loop compound (SHSKGHQKRKALK; also: lipid Pal, place not given here) [Compound 96]

AUC (% of vehicle) [1]: 172.33 % of vehicle | Max (% of vehicle) [1]: 156.08 % of vehicle | Peak Test Compound [1]: 0.03 nM | AUC (% of vehicle) [2]: 226.59 % of vehicle | Max (% of vehicle) [2]: 202.16 % of vehicle | Peak Test Compound [2]: 0.03 nM | AUC (% of vehicle) (Table 20, i3 loop, conc 0.1 uM): 183.19 % of vehicle | Max (% of vehicle) (Table 20, i3 loop, conc 0.1 uM): 157.79 % of vehicle | Peak Test Compound (Table 20, i3 loop, conc 0.1 uM): 0.03 nM | AUC (% of vehicle) (Table 20, i3 loop, conc 0.3 uM): 131.2 % of vehicle | Max (% of vehicle) (Table 20, i3 loop, conc 0.3 uM): 113.68 % of vehicle | AUC (% of vehicle) (Table 20, i3 loop, conc 1.0 uM): 143.61 % of vehicle | Max (% of vehicle) (Table 20, i3 loop, conc 1.0 uM): 131.59 % of vehicle | Peak Test Compound (Table 20, i3 loop, conc 1.0 uM): 0.8 nM | AUC (% of vehicle) (Table 20, i3 loop, conc 3.0 uM): 116.49 % of vehicle | Max (% of vehicle) (Table 20, i3 loop, conc 3.0 uM): 114.49 % of vehicle | Peak Test Compound (Table 20, i3 loop, conc 3.0 uM): 0.8 nM
Compound: Pal-SKLSHSKGHQKRKALKTTVIL-amide (Palmitoyl-SKLSHSKGHQKRKALKTTVIL-NH2; SMILES CCCCCCCCCCCCCCCC(=O)N[C@@H](CO)C(=O)N[C@@H](CCCCN)C(=O)N[C@@H](CC(C)C)C(=O)N[C@@H](CO)C(=O)N[C@@H](Cc1c[nH]cn1)C(=O)N[C@@H](CO)C(=O)N[C@@H](CCCCN)C(=O)NCC(=O)N[C@@H](Cc1c[nH]cn1)C(=O)N[C@@H](CCC(N)=O)C(=O)N[C@@H](CCCCN)C(=O)N[C@@H](CCCNC(=N)N)C(=O)N[C@@H](CCCCN)C(=O)N[C@@H](C)C(=O)N[C@@H](CC(C)C)C(=O)N[C@@H](CCCCN)C(=O)N[C@H](C(=O)N[C@H](C(=O)N[C@H](C(=O)N[C@H](C(=O)N[C@@H](CC(C)C)C(N)=O)[C@@H](C)CC)C(C)C)[C@@H](C)O)[C@@H](C)O) [Compound 88]
positive allosteric modulation of the SDF1-a dependent chemotactic response (RFU) (30 nM of compound): induces a positive SDF1-a mediated chemotactic response

activity at 1 µM [3]: 54.8% | activity at 1 µM [4]: 76.1%
Compound: CCCCCCCCCCCCCCCCC(NC(=O)CCCC[C@@H]1SC[C@@H]2NC(=O)N[C@@H]21)C(=O)N[C@@H](CCSC)C(=O)NCC(=O)N[C@@H](Cc1ccc(O)cc1)C(=O)N[C@@H](CCC(N)=O)C(=O)N[C@@H](CCCCN)C(=O)N[C@@H](CCCCN)C(=O)N[C@@H](CC(C)C)C(=O)N[C@@H](CCCNC(=N)N)C(=O)N[C@@H](CO)C(=O)N[C@@H](CCSC)C(=O)N[C@H](C(=O)N[C@@H](CC(=O)O)C(N)=O)[C@@H](C)O (stereo partly shown) [Compound 33] (Biotin-[ξGly(nC16H33)]MGYQKKLRSMTD-NH2)

activity at 1 µM [5]: 49.3% | activity at 1 µM [6]: 49.8% | Peak Test Compound (Table 20, i3 loop, conc 1.0 uM): 0.2 nM | Peak Ratio [7]: 0.04
Compound: CCCCCCCCCCCCCCCC(=O)N[C@@H](Cc1cnc[nH]1)C(=O)N[C@@H](CO)C(=O)N[C@@H](CCCCN)C(=O)NCC(=O)N[C@@H](Cc1cnc[nH]1)C(=O)N[C@@H](CCC(N)=O)C(=O)N[C@@H](CCCCN)C(=O)N[C@@H](CCCNC(=N)N)C(=O)N[C@@H](CCCCN)C(=O)N[C@@H](C)C(=O)N[C@@H](CC(C)C)C(=O)N[C@@H](CCCCN)C(=O)N[C@H](C(=O)N[C@H](C(=O)N[C@H](C(=O)N[C@H](C(N)=O)[C@@H](C)CC)C(C)C)[C@@H](C)O)[C@@H](C)O [Compound 100] (Palmitoyl-HSKGHQKRKALKTTVI-NH2)

AUC (% of vehicle) (Table 20, i3 loop, conc 1.0 uM): 26.32 % of vehicle | Max (% of vehicle) (Table 20, i3 loop, conc 1.0 uM): 24.45 % of vehicle
Compound: 103: CXCR4 i3 loop compound (IIISKLSHSKGHQKRKALKT) [Compound 103]

activity at 1 µM [5]: 15.9% | activity at 1 µM [6]: 54.8% | Peak Test Compound (Table 20, i3 loop, conc 1.0 uM): 0.2 nM | Peak Ratio [7]: 0.2
Compound: CCCCCCCCCCCCCCCC(=O)N[C@@H](CCCCN)C(=O)N[C@@H](CC(C)C)C(=O)N[C@@H](CO)C(=O)N[C@@H](Cc1cnc[nH]1)C(=O)N[C@@H](CO)C(=O)N[C@@H](CCCCN)C(=O)NCC(=O)N[C@@H](Cc1cnc[nH]1)C(=O)N[C@@H](CCC(N)=O)C(=O)N[C@@H](CCCCN)C(=O)N[C@@H](CCCNC(=N)N)C(=O)N[C@@H](CCCCN)C(=O)N[C@@H](C)C(=O)N[C@@H](CC(C)C)C(N)=O [Compound 93] (Palmitoyl-KLSHSKGHQKRKAL-NH2)

activity at 1 µM [5]: 52.6% | activity at 1 µM [6]: 76.1% | Peak Test Compound (Table 20, i3 loop, conc 1.0 uM): 0.2 nM | Peak Ratio [7]: 0.2
Compound: CCCCCCCCCCCCCCCCC(NC(=O)CCCC[C@@H]1SC[C@@H]2NC(=O)N[C@@H]21)C(=O)N[C@@H](Cc1cnc[nH]1)C(=O)N[C@@H](CO)C(=O)N[C@@H](CCCCN)C(=O)NCC(=O)N[C@@H](Cc1cnc[nH]1)C(=O)N[C@@H](CCC(N)=O)C(=O)N[C@@H](CCCCN)C(=O)N[C@@H](CCCNC(=N)N)C(=O)N[C@@H](CCCCN)C(=O)N[C@@H](C)C(=O)N[C@@H](CC(C)C)C(=O)N[C@@H](CCCCN)C(N)=O (stereo partly shown) [Compound 87] (Biotin-[ξGly(nC16H33)]HSKGHQKRKALK-NH2)

activity at 1 µM [3]: 50.9% | activity at 1 µM [4]: 62.7%
Compound: CCCCCCCCCCCCCCCC(=O)N[C@@H](CCSC)C(=O)NCC(=O)N[C@@H](Cc1ccc(O)cc1)C(=O)N[C@@H](CCC(N)=O)C(=O)N[C@@H](CCCCN)C(=O)N[C@@H](CCCCN)C(=O)N[C@@H](CC(C)C)C(=O)N[C@@H](CCCNC(=N)N)C(=O)N[C@@H](CO)C(=O)N[C@@H](CCSC)C(=O)N[C@H](C(=O)N[C@@H](CC(=O)O)C(=O)N[C@@H](CCCCN)C(=O)N[C@@H](Cc1ccc(O)cc1)C(=O)N[C@@H](CCCNC(=N)N)C(=O)N[C@H](C(N)=O)[C@@H](C)CC)[C@@H](C)O [Compound 49] (Palmitoyl-MGYQKKLRSMTDKYRI-NH2)

activity at 1 µM [5]: 45% | activity at 1 µM [6]: 64.5% | Peak Test Compound (Table 20, i3 loop, conc 1.0 uM): 0.2 nM | Peak Ratio [7]: 0.2
Compound: CCCCCCCCCCCCCCCC(=O)N[C@@H](Cc1cnc[nH]1)C(=O)N[C@@H](CO)C(=O)N[C@@H](CCCCN)C(=O)NCC(=O)N[C@@H](Cc1cnc[nH]1)C(=O)N[C@@H](CCC(N)=O)C(=O)N[C@@H](CCCCN)C(=O)N[C@@H](CCCNC(=N)N)C(=O)N[C@@H](CCCCN)C(=O)N[C@@H](C)C(=O)N[C@@H](CC(C)C)C(=O)N[C@@H](CCCCN)C(=O)N[C@H](C(=O)N[C@H](C(=O)N[C@H](C(N)=O)C(C)C)[C@@H](C)O)[C@@H](C)O [Compound 99] (Palmitoyl-HSKGHQKRKALKTTV-NH2)

AUC (% of vehicle) (Table 20, i3 loop, conc 1.0 uM): 75.55 % of vehicle | Max (% of vehicle) (Table 20, i3 loop, conc 1.0 uM): 74.92 % of vehicle
Compound: 101: CXCR4 i3 loop compound (SKLSHSKGHQKRKALK) [Compound 101]

activity at 1 µM [3]: 100% | activity at 1 µM [4]: 93.1% | Peak Test Comp. (Table 18, i1 loop, drug conc 1.0 uM): 25 nM | Peak Ratio (Table 18, i1 loop, drug conc 1.0 uM, peak test comp./peak control): 1
Compound: CCCCCCCCCCCCCCCC(=O)N[C@@H](CO)C(=O)NCC(=O)N[C@@H](Cc1ccc(O)cc1)C(=O)N[C@@H](CCC(N)=O)C(=O)N[C@@H](CCCCN)C(=O)N[C@@H](CCCCN)C(=O)N[C@@H](CC(C)C)C(=O)N[C@@H](CCCNC(=N)N)C(=O)N[C@@H](CO)C(=O)N[C@@H](CO)C(=O)N[C@H](C(=O)N[C@@H](CC(=O)O)C(N)=O)[C@@H](C)O [Compound 69] (Palmitoyl-SGYQKKLRSSTD-NH2)

activity at 1 µM [3]: 51.6%
Compound: CCCCCCCCCCCCCCCCNC(=O)[C@H](CCCCN)NC(=O)[C@H](CC(=O)O)NC(=O)[C@@H](NC(=O)[C@H](CCSC)NC(=O)[C@H](CO)NC(=O)[C@H](CCCNC(=N)N)NC(=O)[C@H](CC(C)C)NC(=O)[C@H](CCCCN)NC(=O)[C@H](CCCCN)NC(=O)[C@H](CCC(N)=O)NC(=O)[C@H](Cc1ccc(O)cc1)NC(=O)CNC(=O)[C@H](CCSC)NC(C)=O)[C@@H](C)O [Compound 59] (Ac-MGYQKKLRSMTDK-NHhexadecyl)

AUC (% of vehicle) (Table 21, i4 loop, conc 1.0 uM): 40.98 % of Vehicle | Max (% of vehicle) (Table 21, i4 loop, conc 1.0 uM): 42.08 % of Vehicle
Compound: 110: CXCR4 i4 domain compound (GAKFKTSAQHALTSVSRGSSLKILSKGKRGGHSCFH) [Compound 110]

AUC (% of vehicle) (Table 21, i4 loop, conc 1.0 uM): 34.22 % of Vehicle | Max (% of vehicle) (Table 21, i4 loop, conc 1.0 uM): 63.12 % of Vehicle
Compound: 114: CXCR4 i4 domain compound (GAKFKTSAQHALTSVSRGSSLKILSK) [Compound 114]

activity at 1 µM [5]: 65.3% | activity at 1 µM [6]: 80.5% | Peak Test Compound (Table 20, i3 loop, conc 1.0 uM): 1 nM | Peak Ratio [7]: 1
Compound: CCCCCCCCCCCCCCCC(=O)N[C@@H](CCCCN)C(=O)N[C@@H](CC(C)C)C(=O)N[C@@H](CO)C(=O)N[C@@H](Cc1cnc[nH]1)C(=O)N[C@@H](CO)C(=O)N[C@@H](CCCCN)C(=O)NCC(=O)N[C@@H](Cc1cnc[nH]1)C(=O)N[C@@H](CCC(N)=O)C(=O)N[C@@H](CCCCN)C(=O)N[C@@H](CCCNC(=N)N)C(=O)N[C@@H](CCCCN)C(=O)N[C@@H](C)C(N)=O [Compound 94] (Palmitoyl-KLSHSKGHQKRKA-NH2)

AUC (% of vehicle) (Table 20, i3 loop, conc 1.0 uM): 0 % of vehicle | Max (% of vehicle) (Table 20, i3 loop, conc 1.0 uM): 0.24 % of vehicle
Compound: 102: CXCR4 i3 loop compound (IIISKLSHSKGHQKRKALKT) [Compound 102]
